According to paper PMC4380498, “Molecular Insights into Frataxin-Mediated Iron Supply for Heme Biosynthesis in Bacillus subtilis” (PLoS ONE, 2015):

Experiments:
[1] = biological target: the molecule itself; assay: SEC; separation of the apo- and holo-forms of bsNos by size-exclusion chromatography after affinity purification from the crude protein extract
[2] = biological target: T1, Bacillus subtilis ferrochelatase HemH, recombinant Strep-tag II variant (Bacillus subtilis 168, UniProt P32396 1-310); assay: cell-based or functional assay
T1 sequence: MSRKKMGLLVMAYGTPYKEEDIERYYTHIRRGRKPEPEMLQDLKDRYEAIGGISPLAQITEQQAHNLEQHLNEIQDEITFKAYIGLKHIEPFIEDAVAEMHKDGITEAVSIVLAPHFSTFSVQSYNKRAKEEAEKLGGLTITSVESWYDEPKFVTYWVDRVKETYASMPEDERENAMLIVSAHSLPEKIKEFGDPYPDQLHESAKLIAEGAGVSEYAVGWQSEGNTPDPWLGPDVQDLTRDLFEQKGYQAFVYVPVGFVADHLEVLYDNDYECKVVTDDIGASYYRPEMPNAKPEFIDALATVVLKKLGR

[3] = biological target: T1, Bacillus subtilis ferrochelatase HemH, …; assay: MST; 50 nM fluorescently labelled holo-Fra (iron-charged); HemH titrated from 42.6 μM to 0.01 μM in TRIS-based NT binding analysis buffer; 25°C; Monolith NT.115; conditions: both partners purified

B1: Bacillus subtilis nitric oxide synthase bsNos, recombinant His6-tagged (enzyme, Bacillus subtilis 168, UniProt O34453 1-363, looked up)
chain: MEEKEILWNEAKAFIAACYQELGKEEEVKDRLADIKSEIDLTGSYVHTKEELEHGAKMAWRNSNRCIGRLFWNSLNVIDRRDVRTKEEVRDALFHHIETATNNGKIRPTITIFPPEEKGEKQVEIWNHQLIRYAGYESDGERIGDPASCSLTAACEELGWRGERTDFDLLPLIFRMKGDEQPVWYELPRSLVIEVPITHPDIEAFSDLELKWYGVPIISDMKLEVGGIHYNAAPFNGWYMGTEIGARNLADEKRYDKLKKVASVIGIAADYNTDLWKDQALVELNKAVLHSYKKQGVSIVDHHTAASQFKRFEEQEEEAGRKLTGDWTWLIPPISPAATHIFHRSYDNSIVKPNYFYQDKPYE
notes: nitric oxide synthase bsNos of Bacillus subtilis 168, gene amplified from genomic DNA; The holo-form (with heme b) is called dimeric and the apo-form monomeric; The two were separated by size-exclusion chromatography; also called Nos-His6; holo-bsNos; not shown: His6, N-terminal, kept
With B1 the “stoichiometry N” value [1] was 2.

B2: Bacillus subtilis frataxin homologue Fra, recombinant His6-tagged (natural protein, Bacillus subtilis 168)
chain: MDVFSEYLAGIADPFHRERTEEVLTWIKNKYPNLHTEIKWNQPMFTDHGTFIIGFSVSKKHLAVAPEKVTIAHVEDDIVKAGYDYTEQLIRIPWNGPVDYTLLEKMIEFNILDKADCSTFWRK
notes: frataxin homologue Fra of Bacillus subtilis 168, gene amplified from genomic DNA; Used iron-loaded (holo-Fra, anaerobic incubation with FeCl2) or iron-free (apo-Fra); For MST it was labelled with the cysteine-reactive Monolith NT.115 Protein Labeling Kit RED; The methods say N-terminal His6-tag fusions, while legends print Fra-His6; also called Fra-His6; holo-Fra; not shown: His6, N-terminal, kept
In the case of B2, the “kcat(obs) of the frataxin-dependent conversion of protoporphyrin IX into heme b by HemH (holo-Fra varied between 0.1 and 10 μM, Michaelis-Menten fit)” value [2] is reported as 0.925 s⁻¹ and the Kd [3] is reported as 1.63 ± 0.02 µM.
